Experimental data reported in the nanobody polyreactivity screen of Harvey et al. (2022).

Experiment: yeast display, Sf9 membrane polyspecificity reagent, FACS + sequencing; frameworks hold sequencing errors
In short: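 Synthetic nanobody libraries on Saccharomyces cerevisiae BJ5465 were galactose-induced for 36–48 hours, stained 1 hour at 4 °C with 10% biotinylated, detergent-solubilized Sf9 membrane reagent and enriched on streptavidin microbeads. FACS then separated cells into low and high (top ~1%) gates by anti-HA (expression) and streptavidin (reagent binding) fluorescence. Genes were colony-PCR amplified, MiSeq 2 × 250 sequenced and CDR-length filtered. A clone's polyreactivity label is that of its gate of origin.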
For “QVQLVESGGGLVQAGGSLRLSCAASGSIFDYYTMGWYRQAPGKERELVASITQSGGSTYYADSVKGRFTISRDNAKNTVYLQMNSLIPEDTAVYYCAADFSIVKMDYWGQGTQVTVSS”, the “polyreactivity (PSR sort gate)” value was “low polyreactivity”.
In the case of “QVQLVESGGGLVQAGGSLRLSCAASGRTFRYYAMGWYRQAPGKERELVAAITSNGGSTYYADSVKGRFTISRDNAKNTVYLQMNSLKPEDTAVYYCNALASRGKYGFDYWGQGTQVTVSS”, the “polyreactivity (PSR sort gate)” value is reported as “high polyreactivity”.
In the case of “QVQLVETGGGLVQAGGSLRLSCAASGFTSLTYAMGWYRQAPGKERELVAAITFSGGSTYYADSVKGRFTISRDNAKNTVYLQMNSLKPEDTAVYYCARDGLWYNAIWEYDYWGLGTQVTVSS”, the “polyreactivity (PSR sort gate)” value is reported as “high polyreactivity”.
For “QVQLVESGGGLVQAGGSLRLSCAASGSIFGIYVMGWYRPAPGKERELVAGISTRGGSTYYADSVKGRFTISRDNAKNTVYLQMNSLKPEDTAVYYCAAVPASYRYPMYYWGQGTQVTVSS”, the “polyreactivity (PSR sort gate)” value was “low polyreactivity”.
With “QVKLVDSGGGLVQAGGSVGLSCAASGRIFPWYTMGWYRQAPGKERELVAVISSGGRTHYADSVKGRFTISRDNAKNTVYLQMYSLNPEDTAVYDCAAESRYQRYDYWGQGTQVTVSS” the “polyreactivity (PSR sort gate)” value was “high polyreactivity”.
In the case of “QVQLVESGGGLVQAGGSLRLSCAASGRTFVHYTMGWYRQAPGKERELVAAISGTGTSTYYADSVKGRFTISRDNAKNTVYLQMNSLKPEDTAVYYCARDPFFGFHIGYPRRDYWGQGTQVTVSS”, the “polyreactivity (PSR sort gate)” value is reported as “low polyreactivity”.
For “QVQLVESGGGLVQAGGSLRLSCAASGFILTLYAMGWYRQAPGKERELVASISRRGGSTYYADSVKGRFTISRDNAKNTVYLQMNSLKPEDTAVYYCNAQGYRRGYDYWGQGTQVTVSS”, the “polyreactivity (PSR sort gate)” value was “high polyreactivity”.
For “QVQHVESGGGLVQAGGSLRLSCAASGRTFPGNAMGWYRQAPGKERELVAAISSSGGSTHYADSVKGRFTFSRDNAKNTVYLQMNSRKPEDSAVYYCNARSKGYSYRYYYWGQGTQVTVSS”, the “polyreactivity (PSR sort gate)” value was “high polyreactivity”.
In the case of “QVQLVESGGGLVQAGGSLRLSCAASGFIFPYYAMGWYRQAPGKERELVAAILTGGSTYYADSVKGRFTISRDNAKNTVYLQMNSLKAEDSAVYYCAARRKYDPNYYWGQGTQVTVSS”, the “polyreactivity (PSR sort gate)” value is reported as “high polyreactivity”.
For “QAQLVESGGGLVQAGGSLRLSCAASGSTSLDNAMGWYRQAPGKERELVAAIRWRGSITFYADSVKGRFTISRDNAKNTVYLQMNSLKPEDTAVYYCAVTLRYTRSGAYDYWGQGTQVTVSS”, the “polyreactivity (PSR sort gate)” value was “low polyreactivity”.
In the case of “QVQLVESGGGLVQAGGSLRLSCAASGSIFPWYAMGWYRQAPGKERELVAAITISGGSTHYADSVKGRFTISRDNAKNTVYLQMNRLKPEDTAVYYCATPRYPSYDYWGQGTQVTVSS”, the “polyreactivity (PSR sort gate)” value is reported as “low polyreactivity”.
With “QVQLVESVVGLVQARGSLRLSSAATGRTFSRYAMGWYRQAPGKESELVATISWSGTSKYYADSVKGRFTISRDNAKNTVYLQMNSLKPEETAVYYCDAYYLTRFSILYYYWGLGTQVTVSS” the “polyreactivity (PSR sort gate)” value was “high polyreactivity”.
With “QVQLVESVGGLVQAGGSLRLSCPASGSIFKYNAMGWYRQSPGKERELVAAISSGGSTNYADSVKGRFTISRDNAKNTVYLQMNSLKPEDTAVYYCAKDRRRWYYTRDYWGQGTQVTVSS” the “polyreactivity (PSR sort gate)” value was “low polyreactivity”.
With “QVQLLETGGGLVQAGRSHRLSCAASGLTFEDYAMGWYRQAPGKESELVAAITYSGGSTYYADSVKGRFTISRDNAKNSVYLQMMSLKPEDTAVSVCAAVSTLRPSWKRYYYWGQGNQVTVSS” the “polyreactivity (PSR sort gate)” value was “high polyreactivity”.
For “HVQLVESGGGLVQAGGSLRLSCAASGRIFAPYDMGWYRPAPGNERELVAAISRSGGSTYYADSVKGRFTSSRDNAKNTVYLQMNSLKPEDTAVYYCAASYPGRYWLYRYEYWGQGTQVTVSS”, the “polyreactivity (PSR sort gate)” value was “high polyreactivity”.
For “QVQLVESGGGLVQAGGSLRLSCAASGRIFHVNAMGWYRQAPGKERELVATITTSGGTTYYADSVKGRFTISRDKAKNTVYLQMNSLKPEDTAVYYCAAKFPRQYSSRYNYWGQGTQVTVSS”, the “polyreactivity (PSR sort gate)” value was “low polyreactivity”.
In the case of “QVQLVESGGGLVQAGGSLRLSCAASGSNFTSYAMGWYRQAPGKERELVAAITRGGRTYYADSVKGRFTISRDNAKNTVYLQMNSLKPEDTAVFYCNAPGYRGYEYWGQGTQVTVSS”, the “polyreactivity (PSR sort gate)” value is reported as “high polyreactivity”.
With “QVQLVESGGGLVQAGGSLRLSCAASGFIFSYYAMGWYRQAPGKERELVAAINWSGGSTYYADSVKGRFTISRDNAKNTVFLQMNSLKPEDTAVYYCAAYSSWHPYDYWGQGTQVTVSS” the “polyreactivity (PSR sort gate)” value was “high polyreactivity”.
In the case of “QVQLVETGGGLVQAGGSLRLSCAASGRTFARNAMGWYRQAPGKERELVAAISRRGGNTYYADSVKGRFTISRDNAKNTVYLQMNSLKPEDTAVYYCAVRWPSARIPVKLDYWGQGTQVTVSS”, the “polyreactivity (PSR sort gate)” value is reported as “high polyreactivity”.
With “QVQLVESGGGLVQAGGSLRLSCAASGSIFYHNAMGWYRQAPGKERELVAAISYRTGRTYYADSVKGRFTISRDNAKNTVYLQMNSLKPEDTAVYYCAAPYSWGQGTQVTVSS” the “polyreactivity (PSR sort gate)” value was “high polyreactivity”.
For “QVQLVESGGGLVQAGGSLRLSCAASGYTFWRYAMGWYRQAPGKERELVAAISQSGGRTYYADSVKGRFTISRDNAKNTVYLQMNSLKPEDTAVYYCATSSTQGDDYWGQGTQVTVSS”, the “polyreactivity (PSR sort gate)” value was “high polyreactivity”.
With “QVQLVESGGGLVQAGGSLRLSCAASGSIFDSYAMGWYRQAPGKERELVASISRRGGTTYYADSVKGRFTISRDNAKNTGYLQMNSLKPEDTAVYYCAKVGSLYQPSRYDYWGQGTQVTVTS” the “polyreactivity (PSR sort gate)” value was “high polyreactivity”.
With “QVHHLESRGGLVQEGGSLPISCGASGSTFLRYALGWYRQAPGKVRELVADITTSGGITYYADSVKGRFTISRDNAKYTVYLQLNSLKPEDTAVYDCDYWGQGTQVTVSS” the “polyreactivity (PSR sort gate)” value was “low polyreactivity”.
With “QVQLVESGGGLVQAGGSLRLSCAASGITFSEYAMGWYRQAPGKERELVAAITSGGNTYYADSVKGRFTISRDNAKNTVYLQMNSLKPEDTAVYYCAATFSSAFAYYYWGQGTQVTVSS” the “polyreactivity (PSR sort gate)” value was “low polyreactivity”.
In the case of “QVQLVESGGGLVQAGGSLRLSCAASGSIFDGNAMVSYRQAPGKDRELVADISRGGSTYYADSVKGPFTISRDNAKNTVYLQMNSLTPEDTAVYYCNVEFFFWPYEYGYWGQGTQVTVSS”, the “polyreactivity (PSR sort gate)” value is reported as “low polyreactivity”.
With “QVQLVESGGGLVQAGGSLRLSCAASGSTFQRYAMGGSRQAPGKERELVAAITAGGSTYYADSVKGRFTISRDNAKNTVYLQLNSLKPEDTAVYYCNAAWFYRYGYWGQGTQVTVSS” the “polyreactivity (PSR sort gate)” value was “high polyreactivity”.
In the case of “QVQLVESGGGLVQAGGSLRLSCAASGSIIHPYTMGWYRPAPGKERELVAGISESSDSTYYADSVKGRFTISRDNAKNTVYLQMNSLKPEYTAVYYCNRDHDWPLSVLEVDYWGQGTQVTVSS”, the “polyreactivity (PSR sort gate)” value is reported as “low polyreactivity”.
With “QVQLVESGGGLVQAGGSLRLSCASSGRIFVFNAMGWYRPAPGKERELVAAINWSGGTTYYADSVKGRFTISRDNAKNTVYLQMNSVNPEDTAVYYCNAYLNRRMGYWGQGTQVTVSS” the “polyreactivity (PSR sort gate)” value was “high polyreactivity”.
For “QVQLVESGGGLVQAGGSLRLSCAASGFTFEGYAMGWYRQAPGKERELVAAISYSGSSTYYADSVKGRFTISRDNAKNTVYLQMNSLKPEDTAVYYCNARRHWYSAWGYDYWGQGTQVTVSS”, the “polyreactivity (PSR sort gate)” value was “high polyreactivity”.
For “QVQLVESGGGLVQAGGSLRLSCAASGSTFLHYAMGWYRQAPGKERELVAAISFSGVRTYYADSVKGRFTISRDNAKNTVYLQLNSLKPEDNAVYYCDADGHHADYDYLGQGTQVTVSS”, the “polyreactivity (PSR sort gate)” value was “low polyreactivity”.
With “QVQLVESVGGLVQAGGILRLSCGASGRTFTGYTMRWYRQEPGKERELVATISRRGRSTYYADSVKGRFTISRDNAKNTVYLQMNSLKPEDTAVYYCAAEKPRAVYFEYDYWGLGTQVTVSS” the “polyreactivity (PSR sort gate)” value was “high polyreactivity”.
With “QVQLVESGGGLVQAGGSLRLSCAASGRIFFYYAMGWYRQAPGKERELVAAISNSGGGTYYADSVKGRFTISRDNAKNTVYLQMNSLKPEDTAVYYCAREAGRYAYKYYWWQRPDYDYWGQGTQVTVSS” the “polyreactivity (PSR sort gate)” value was “low polyreactivity”.
With “QVQLVESGGGLVQAGGSLRLSCAASGRTFFFNAMGWYRQAPGIERELVATISWNGGDTYYADSVKGRFTISRDNAKNTVYLQMNSLKPEDTAVYDCNARVLWGQGTQVTVSS” the “polyreactivity (PSR sort gate)” value was “high polyreactivity”.
In the case of “QVQLVESGGGLVQAGGSLRLSCAASGRTFTINGMGWYRQAPGKERELVAGINWRDGRTYYADSVKGRFTISRDNAKNTVYLQMNSLKPEDTAVYYCNVEVAESFDYWVQGTQVTVSS”, the “polyreactivity (PSR sort gate)” value is reported as “low polyreactivity”.
With “QVQLVESGGGLVQAGGSLRLSCAASGRTFSRYAMGWYRQAPGKERELVAAIRGNSGNTYYADSVKGRFTISRDNAKNTVYLQMNSLKPEDTAVYYCAKPFNIWGQGTQVTVSS” the “polyreactivity (PSR sort gate)” value was “high polyreactivity”.
In the case of “QVQLVESGGGLVQAGGSLRLSCAASGRIFTNAMGWYRQAPGKERELVAAISGGSNTYYADSVKGRFTISRDNAKNTVYLQMNSLKPEDTAVYYCNTDDLWWDGGYDYWGQGTQVTVSS”, the “polyreactivity (PSR sort gate)” value is reported as “low polyreactivity”.
In the case of “QVQLVESGGGLVQAGGSLRLSCAASGIILNYNAMGWYRQAPGKERELVAVIRTRGGSTYYADSVKGRFTISRDNAKNTVYLQMNSLKPEDTAVYYCAAKQIPWHRGGFGYDYWGQGSQVTVSS”, the “polyreactivity (PSR sort gate)” value is reported as “low polyreactivity”.
In the case of “QVQLVESGGGLVQAGGSLRLSCAASGRIFGLYAMGWYRQAPGKERELVAAITKRGGTTYYADSVKVRFTISRDNAKNTVYLQMKSLKPEDTAVYYCAAKRSVLRTADYDYWGQGTQVTVSS”, the “polyreactivity (PSR sort gate)” value is reported as “high polyreactivity”.
With “QVQLVESGGRLVQEGGSLRLSCAASGRTLYDYAMGWYRQAPGKERELVAGITWRGGSTSYAASVKGRFTISRDNAKNTVYLEMNSLKPEDTAVYDCATDGDERMDYWGQGTQVTVAS” the “polyreactivity (PSR sort gate)” value was “low polyreactivity”.
With “QDQLVESGGGLVQAGGSLRLSFAASGSTFANYAMVWYRQAPGKEREWVAAISFSTVSTYYADSVKGRFTISRDNAKNTVYIQMNSLKPEDTAVYYCNTYYYGSRPSEDYWGQGTQVTVSS” the “polyreactivity (PSR sort gate)” value was “high polyreactivity”.
With “QVQHVESGGGLVQAGGSLRLSCAASGLTFTAYVMGWYRQAPGKERELVAAIRISGGSTYYADSVKGRFTISRDNAKNTVYLQMKSLQPADTAVYYCATRHRHVTATDSRIGDYWGQGTQVTVSS” the “polyreactivity (PSR sort gate)” value was “low polyreactivity”.
In the case of “QVQLVESGGGLVQAGGSLRLSCAASGSIFLGNTMGWYRQAPGKERELVAAITIGGSTHYADSVKGRFTISRDNAKNTVYLQMNSLKPDDTAVYYCAKEGWPFGIDFDYWGQGTQVTVSS”, the “polyreactivity (PSR sort gate)” value is reported as “low polyreactivity”.
In the case of “QVQLVESGGGLVQAGGSLRLSCAASGRIFDINAMGWYRQAPGKERELVAAINYNGSSTYYADSVKGRFTISRDNAKNTVYLEMNSLKPEDTAVYYCATEQVDVYTYDYWGQGTQVTVSS”, the “polyreactivity (PSR sort gate)” value is reported as “high polyreactivity”.
